pEC50, pKd: −log10 of the molar value. Each block holds one substance with its values, some of them ahead of it.
How the values were obtained:
[1] = target: ^chaducanumab (murine chimeric IgG2a/kappa version of aducanumab) (human | murine); assay: ELISA; antibody (5 μg/mL) captured on coated goat anti-mouse IgG Fcγ antibody; serially diluted monomeric biotin-conjugated Aβ1-40 in PBS with 1% BSA; HRP-streptavidin detection
[2] = target: dimeric Aβ_(1-15) multi-antigen peptide (MAP); assay: not stated; binding of antibody to branched multi-antigen peptides of Aβ1-15, EC50 (Fig. S5)
[3] = target: Aβ_(1-16) peptide (UniProt P05067); assay: MST
[4] = target: Aβ_(1-28) peptide; assay: SPR
Chain of Aβ_(1-28) peptide (P05067 672-699): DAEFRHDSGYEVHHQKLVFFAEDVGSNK

pEC50 [1]: < 6.00
Substance: biotin-conjugated Aβ_(1-40) (Aβ_(1-40)-Lys-Biotin), monomeric (peptide)

pEC50 [2]: < 6.00
Substance: ^chaducanumab (murine chimeric IgG2a/kappa version of aducanumab) (antibody)

pKd [3]: 7.02
pKd [4]: 5.89
Substance: chgantenerumab

From article PMC5913127
